From the supplement of paper PMC12636428

Test system: Saccharomyces cerevisiae
Experiment: transcriptional activation domain activity (GFP:mCherry ratio, weighted mean of sorted bins, harmonized to initial dataset scale) (arbitrary fluorescence ratio units); higher = stronger transcriptional activation
Details: beta-estradiol 1 µM; induction time 4 h
Procedure, shortened: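 Sorting into 8 bins by GFP:mCherry ratio followed a 4-hour hold at 30 °C after cultures were diluted 1:5 into SC with 1 uM beta-estradiol. The yeast diploids carried a GFP reporter and had barcoded protein tiles, fused to an estradiol-inducible synthetic transcription factor, integrated at URA3. Barcodes were then sequenced, and tiles with under 50 reads were removed. Activation activity is the read-weighted mean of bin median fluorescence, averaged across barcodes and linearly mapped onto the initial dataset scale.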

Row | Sequence | transcriptional activation domain activity
1 | EKKERAAEPIAEITTEAAAEPKAAAEEATPKKDKKEKKSKKEKKTEESAVTSE | 34600
2 | KRSKSPDSRHSSSRKRSRSRERKHKSSRKRSKSREGKIKKSKSEKHRSHKHKR | 46300
3 | TKLCTIGINCIFIIWHIADILIESPSHLPDIFTVFNVIISCSLFLLLFVYFVY | 27600
4 | HKLKHVLAEHGARMSIHLGRRQVTHVILGRPAGGGGGAGGGLAGGKLQKEIQK | 42500
5 | YFILFPFHHFLSPSLHSAPAFWCTLLLFTYVLVFFFGTLYHMVMFCFVCLFIC | 94500
6 | YLINLLYQLLWLVPFSAPLSLRSTLAKVYEFGGVHSGSAICSVLWFILLTVFL | 64900
7 | MKVDLNKHPSCRRIIWVGYTKICTFLIPDKLLVYLSLTTQARRIAWREKLTLF | 59600
8 | RLSSSSKSKRSLRHPQRALCSSRAWEEDGGGNPNGGRGFVVRIRRFGRARLHS | 62500
9 | MLWLVSWWLCLVVSNTLLFYLGEGGLVCFILCNSSFQVYLFLDLFIFLLFIHS | 39800
10 | MSLRRSCLIFRWHVFMLLLMLFVRTWLVRLLVFLVFVVLMVRLLSLFPPFPLS | 32200
11 | VDFVKHLISCFSVVGEDNFACTLKGFGWMYLTHVYFFFNVFVALNLQLIILLS | 60000
12 | LVLLFSLYPLLLPLLPLFPFLLSLFLPLPLNLPKIPAAFFFVFLNIYFLFSIL | 27700
13 | LPTNPTTHPLLFSAIHFFIYNVGDLLGRYICSFSCFIIWSQPMLLGLSLARVV | 77600
14 | GTGGLSELRDAFDDSKASYGYARVTYSNDKESQREKFILVVWIGSGCKVMRKG | 36600
15 | LPNFLKLGLTTLYSAIGFDEWPSDAVKWAYYFSNIRMVRSWSSWDLYQHLVPW | 45500
16 | SDVLFVSLNLLYFWCYLIPLLATIWIRLGNADSTINDRLSVHFYSVAFLLLLF | 32800
17 | EEEAPEDNSGPRQGAKPAKRAHARARAPKCSGPTNAKVNGKGRARRSGRPAKK | 24900
18 | AVLWNPCICFKSPLVFRFCLSVLLAYLSLPFIPFVFLYYCFLFFVLWFIHSSY | 31700
19 | KSPVKRKPKAEGASADGSPKKRKSKGEAADADGTPKKRGRKPKKAEPQPEIQG | 33700
20 | KESPILVGLICIFNASTFLQMMFYAAISLPLNEDACFGVNFVQTLLWHISFCT | 74000
21 | ALLNGQCGGANYTGPTVCVCGLNIIQGFMRIRKCSSLYMIVLALKLIFITFFS | 90200

Row | Sequence | transcriptional activation domain activity
22 | RKDALLKTSFGGTVFAVRQIGGDRFHGMPFVHLMVIVICLHWTWLRAVIFLGR | 52800
23 | ETYLFLQDQDESADSHHHDELGSEITLADNKFSYLPPTLEELMEEQDCNNGRS | 84700
24 | SQVAVSPGAVIEVNEEDAGEEQEQQQPARKRQRHRSKRQKLDAEQSAGQGGVV | 31700
25 | MKDSHTARSDAVVFAIAVGRPFFFAAVLLRLLATETLGSSIALGVIGLVFIYC | 42400
26 | VFIAVLSCVGTCGASYLCISFMPLVCHNSPYYTPLSSLIWSCRAGLRCLYLWI | 55300
27 | EREVRDEERTRRNREKRNRKKGKGGKGGKEDGGAGGGGGGGNVKARVGMVGDG | 15100
28 | KSGRGGGRKGGRGGGKASARGGAGGARGGGGGGRGGGGAHTERGRTGKGAGAS | 21800
29 | MPHYNSFNMDFSKLRNACGIVLLHWRRYRRILWLIAKNFMRLRGLVSLFDSGP | 48600
30 | EEEYEEEEEEEYEEEEDEEEDEDEEEGGEGEEEDEVKAQRGRRAATAPARARR | 28000
31 | MVFFTSSFLLGFFSFVSFRNHCSFFLMAPFLTGSELFLFFVLLFILFFFLALA | 64900
32 | VGRLVWFVTLLHVLFWVVQVLKDRRALTGKLVFAYVWQYQKFRFAWVAFLSMT | 75200
33 | KGKSKERKTESASTSGSEAKESEAAPKEEKEDAKKEDDKKEKAEEKTEEKAEE | 51500
34 | KFIGYQWAYFAVISGALLYAWSRVIMLFVLRILPQDIRLIAFIITSIYCLILL | 24900
35 | MIFSNLLVLSLLCSLFLFFYFFFYVLCFFLFAYTLSRSLYITILGFFDLVIVF | 66200
36 | KDKNKEKERGKHKHRRRERDGDGDGDEEDGRSSKKHKKERGQKRSEKEGGGED | 42100
37 | MDAYFFFVFLSFLFFYIFFLLFSILLLFSFYFLCSGVHNMCFLVGVWLWSRGG | 35800
38 | PFSFSNTDLTALFTHPEGPNCTNTNNGNVDVCNRASTDATDANIENLSFLNMA | 116000
39 | MCLCLLLLLLLHVFIFFMSFYPSGWPPSYSIIFFLWSFILVVFYPCKFFFLVV | 70400
40 | MNLTLFYYTFLLSFFLIYCVVLNLYLRFFPANFVNMPLFISLTFLKCAWIPLL | 56200
41 | QENTLPATQANSSLLETYPIVQSNPVTTTIKESPNSIMAGWDNWESDMVWRDV | 90100
42 | MQVISYIFFCHVKYLFFVYSLHVVSNTNLSSYMLFNWLYLILLRLFVYIIYFI | 71300

Row | Sequence | transcriptional activation domain activity
43 | EAEEEESEKKDKKRKKDKEGKKKKKSKSSEEKETEEEKVEEKKSEESSESKKD | < 6570
44 | KYEEQEDKDEEEEEKEEEEEEEEEEEEEEEGKRGEGKKATAKRRSKGSAYGGK | 17300
45 | FSFGLYLLYHSPYWMNVAQLWVNYPHIEFMPGIKKYYLIQMSYWLQQMYFIQI | 48700
46 | WYAPDAGGSVYDYITLTAGLDALNCAQKVRISPLLIVLLRNFAVRCLLSKGSL | 52300
47 | GGEEGRRKEREAGGRGTQKGEEEGDEVGRGGRGRRQREGRERGEARAGAGRRR | 30800
48 | VMHALWNRWIFFNRSLFLGNQHEGVRAFITEYWRMIRLAAGWDVLRWWLLILC | 51800
49 | MDNQAGEQKPKQRRVADRERKRAVRACDGCRRQKEKCDGGVPCRRCIRLRRQC | 53600
50 | LVLKMILDRLAEPGDSLLNIDFSTLIHQFAKYLNKVPSNYVVLRIKIKICHLV | 61000
51 | PHHKWLVPTPFASHAFHPVDGYAQSVPYHLFVFLFPMHRLLYLILFVAVNFWS | 48000
52 | RFGGSARGGGTGVEPPAKGKKGGGEEREGGEGRKGKGGRGPGTRERKGKERER | < 6570
53 | GLVSLDRLLVNRFGEALLSMGRAPTWSWKRALRAVLLSLVELSARCEFKLGSN | 48400
54 | MVFFFFGRRGGCLVGFVVLLSFPLSFFLSFKLCLLLPLYYYSICVFFFSCVFF | 55600
55 | HELFALYNLLYFRKLLLPRVEVIWSPRLTLCAGICELSKDPKTGKFTRIRLKL | 47000
56 | SLHLAGCMLITCIGFIVLACLDVSQHIGAGYFCCFLLCCGGYISSPLLSTWYN | 94700
57 | SNRLFVGLPLCRDPEYLKFSVNHTMRVFMSGRMISVLTPVLRPILAPLLCSRK | 49600
58 | DAESDNEEGAAGAADKKKKKKKKGASTAATSTPAEDEAAAAKGKKKPAAPLAA | 53700
59 | SRKGESGREDSGGRDKESRKRSRRDKTPVADERRRDGTRAAEERDRKRRGDHR | 49100
60 | VKEKTDQAKAEDRKRAEKRGEQYEDSSDEEKERRRKARQKAKQGGGTGAAKAP | 26200
61 | YTRCEVIYLKRSLPSYFGPSMLQFTILFILIVTNSIVLLGLFLLLCRTLWGLA | 19500
62 | DNLLGMDYYNIDDLLTQELRDLDIPLVPSPKTGDGSSDKKNIDRTWNLGDENN | 79900
63 | GKSKEERERDEEVIRKWSGKPTKVMLQVFDDCSLSFTRPAKLMYRSIAHFSLW | 65100

Row | Sequence | transcriptional activation domain activity
64 | MADAVADAAANLKLEEGAAENAPKLQLDEETGEWVSKGELKKRLAKRAKKASK | 14100
65 | ELKEGDPKVCAGKAVNEKGEVVDKDGNVIGKVDVVPGEAAFEAMKALKERLGE | < 6570
66 | GVLFCLSCLSFINLSFFLGGGCLFSFSFLFPALVWRYAFFLLVLDYRRILNIP | 36900
67 | GELQFCYITGMVLGNLACMEQWGNIVRVIFRAFRLALDSPVFFRKVIQAIHTQ | 80700
68 | RGINAPLIQIPLYNNDPWIQTTISDDYLLPPGWFDILFPTNFDLLKDIYLTAF | 60600
69 | MILIVFSLLLSFPMFLERVLFFPLSFLFFFSPSFCLSYTQPSPLTMPFFSYFC | 68300
70 | YFEIAGLTFFFYWYFYLLVGGIDCAWNKFVYVMVSHMSTMIVHVQITLSHFAM | 32700
71 | KTSNDLKYLFTFVEYHVFVSLIRRSLSQLDENKEKHEQMIKLYDDILKNIECI | 24800
72 | GATSTDHQHHHHRIQFHSHKPNRNNIVNNSGISAANTTADLTNNDLNDLISRE | 31400
73 | QGASAGVSPIFKKEKYTLKWKRVKEFNLIFVAVYQSLLHLGWIDRLLENISTI | 67900
74 | PPEEEAEEAVGAEKAEEAEEAEEAEEAVEEEPPKAANGRRSRAAAASAAKSSN | 35500
75 | ANEEAEPEHPEPAAEANDSTGREGRGRGKRGRDRGRGRGRGRGGRSGRGGASG | 27600
76 | MSEPPRKRAKLACVTCNARRVKCDVTERQPCSNCIAGNALCETRESKRGKHPR | 15300
77 | TATVQYSERRRGTVTAFNDEKGYGFAADSDPASLGNKEVLVHHKKIKSTARHK | 24200
78 | VYRRELDQNKGGLILIVRRTGNEVHCGVYITFGFMKQWKLYVKSLISITGQWH | 58500
79 | YLFLFYLTILVWFGLFYFIQFFFYLSFHFLFCFVLLLFFTFVFWGVFIFCFFF | 45500
80 | MLYYYHYLAVQSGLKRKYAFKNMYLCLLLYSLFFVFASINIVHLIKWQCYFFV | 45800
81 | PDLSIYMVDAFVHVLITAGLRDSAAVLHERIMSEFLDRILLILRAAVRLNKII | 62400
82 | GSRGGRGGRGGSGGRGGRGGSSGGGGRESSGGRSERGGRRGGSGASGTKRLGK | 15100
83 | RKLRTKIIELSGSVEAACALGVADGIVDLVESGETMRAAGLKAIDTVVDTQAV | 29100
